Test results as given in US20250043017A1 (Regeneron, published 2025).

What was measured:
[1] = molecular target: T1, human 4-1BB on cells (human, UniProt Q07011 24-255); test: cell-based or functional assay
[2] = molecular target: T1, human 4-1BB on cells; test: cell-based or functional assay; remark: listed apart in the source
[3] = molecular target: T1, human 4-1BB on cells; test: flow cytometry, Jurkat/NFkB-Luc/h41BB cells
Procedure: Binding was detected by using a labeled secondary antibody and measuring fluorescence on a flow cytometer.
Assay set up: OVCAR-3+/−PD-L1 cells were lifted with trypsin, washed and resuspended in stain buffer (2% FBS in PBS). OVCAR-3 and Jurkat/NFkB-Luc/h41BB cells were counted and added to wells at 200,000 cells/well. Cells, in wells of 96-well round bottom plates, were pelleted by centrifugation and resuspended in 150 ul stain buffer (PBS containing 2% FBS). Plates were once again centrifuged and subsequently 100 ul of stain buffer alone or stain buffer containing antibody, titrated from 200 nM to 12 pM in a 9-point 1:4 dose titration were added to cells. Cells and antibodies were incubated for 30 min on ice and then washed in stain buffer. Cells were resuspended in 2 μg/ml allophycocyanin (APC) conjugated goat-anti human secondary antibody. A secondary antibody alone control was included. Cells and secondary were incubated for 30 min on ice and then washed in stain buffer. After a subsequent wash with PBS (containing no FBS), cells were resuspended in viability dye (reconstituted in DMSO according to the manufacturer's protocol and diluted 1:1000 in PBS) and incubated for 20 min on ice. They were then washed with stain buffer and resuspended in 2% PFA for 30 min at 4 C. After washing they were filtered and analyzed by flow cytometry. EC₅₀ values of the antibodies were determined from a 4 parameter logistic equation over a 9-point dose response curve (including secondary only control) using GraphPad Prism software.

[4] = molecular target: T2, human 4-1BB expressed with a C-terminal myc-myc-hexahistidine tag (h4-1BB.mmH) (human); test: blocking ELISA, 0.25 nM h4-1BB-mmh binding to coated 6His-Flag-h4-1BBL
T2 construct: also called hCD137 (4-1BB) mmH
T2 sequence (chain, as listed by the source limits assumed): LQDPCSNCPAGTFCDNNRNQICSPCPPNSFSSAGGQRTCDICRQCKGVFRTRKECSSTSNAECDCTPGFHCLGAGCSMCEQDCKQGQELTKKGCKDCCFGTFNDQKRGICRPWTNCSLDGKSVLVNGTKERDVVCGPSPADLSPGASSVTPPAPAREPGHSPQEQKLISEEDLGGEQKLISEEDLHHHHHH
Procedure: The 4-1BB blocking assay was performed similarly to the PD-L1 blocking assay. 6His-Flag-h4-1BBL protein ([…] in PBS) was coated onto a 96-well microtiter plate overnight at 4 °C. […] The plates were developed using TMB substrate solution (BD Biosciences) and the absorbance at 450 nm was measured on a SpectraMax I3x plate reader.
Binding data were analyzed using a sigmoidal (four-parameter logistic) dose-response model with GraphPad Prism™ software. […] The percent blocking of tested antibodies at the highest tested concentration of 100 nM was calculated based on the formula shown below: […]

[5] = molecular target: T2, human 4-1BB expressed with a C-terminal …; test: SPR Biacore, 25 C, antibody captured via anti-hFc, h4-1BB.mmH as analyte
Procedure: The CM5 Biacore sensor surface was derivatized by amine coupling with a monoclonal mouse anti-human Fc antibody. All Biacore binding studies were performed in a buffer composed of 0.01M HEPES pH 7.4, 0.15M NaCl, 3 mM EDTA, 0.05% v/v Surfactant P20 (HBS-EP running buffer). […] Antibody-reagent association was monitored for 5 minutes while dissociation in HBS-EP running buffer was monitored for 10 minutes. At the end of each cycle, the antibody capture surface was regenerated using a 10 sec injection of 20 mM phosphoric acid. All binding kinetics experiments were performed at 25° C.
Data analysis: The specific SPR-Biacore sensorgrams were obtained by a double referencing procedure. The double referencing was performed by first subtracting the signal of each injection over a reference surface (anti-hFc or anti-mFc) from the signal over the experimental surface (anti-hFc-captured anti-PD-L1×4-1BB antibodies) thereby removing contributions from refractive index changes. In addition, running buffer injections were performed to allow subtraction of the signal changes resulting from the dissociation of captured antibodies or antigens from the coupled anti-hFc or anti-mFc surface. Kinetic association (kₐ) and dissociation (kd) rate constants were determined by fitting the real-time sensorgrams to a 1:1 binding model using Scrubber v2.0c curve fitting software. Binding dissociation equilibrium constants (KD) and dissociative half-lives (t½) were calculated from the kinetic rate constants as: […]

T1 sequence (Q07011 24-255): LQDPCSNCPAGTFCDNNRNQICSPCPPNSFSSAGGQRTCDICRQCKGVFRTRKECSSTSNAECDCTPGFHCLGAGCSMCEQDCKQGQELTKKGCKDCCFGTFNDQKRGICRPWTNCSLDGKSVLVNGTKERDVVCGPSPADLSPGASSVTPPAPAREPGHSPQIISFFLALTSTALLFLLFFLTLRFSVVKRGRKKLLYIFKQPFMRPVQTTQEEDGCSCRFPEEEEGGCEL

Binder	NFkB-luciferase EC50, Jurkat/NFkB-Luc/h41BB + HEK293/hCD20/hPSMA [1] [nM]	NFkB-luciferase MAX (RLU), Jurkat/NFkB-Luc/h41BB + HEK293/hCD20/hPSMA [1] [RLU]	NFkB-luciferase MAX (RLU), Jurkat/NFkB-Luc/h41BB + HEK293/hCD20/hPSMA/hPD-L1 [1] [RLU]	IL2 release MAX, human CD3+ T cells + HEK293/hCD20/hPSMA + CD20xCD3 [2] [pg/mL]	IL2 release MAX, human CD3+ T cells + HEK293/hCD20/hPSMA, no CD20xCD3 [2] [pg/mL]	IL2 release MAX, human CD3+ T cells + HEK293/hCD20/hPSMA/hPD-L1 + CD20xCD3 [2] [pg/mL]	IL2 release MAX, human CD3+ T cells + HEK293/hCD20/hPSMA/hPD-L1, no CD20xCD3 [2] [pg/mL]	Fold change (max MFI over secondary antibody alone) [3] [fold]	Max [gMFI] [3] [gMFI]	% Blocking at 100 nM mAb [4] [%]	270 nM h4-1BB-mmH Bind (RU) [5] [RU]	Kd [5] [nM]	koff [5] [s⁻¹]	kon [5] [M⁻¹ s⁻¹]	t½ [5] [s]	NFkB-luciferase EC50, Jurkat/NFkB-Luc/h41BB + HEK293/hCD20/hPSMA/hPD-L1 [1] [nM]	IL2 release EC50, human CD3+ T cells + HEK293/hCD20/hPSMA/hPD-L1 + CD20xCD3 [2] [nM]	EC50 [3] [nM]
mAb25894 (antibody, V domains shown, bivalent parental anti-4-1BB antibody of REGN6188; also called 25894P2; parental bivalent 4-1BB antibody) VH: EVQLVESGGGLVQPGGSLRLSCVASGFTFSSYEMNWVRQAPGKGLEWVSYISNSGTTIYYAGSVKGRFTISRDNAKKSLYLHMNSLRAEDTAVYYCAREGTIFGTVHYYFALDVWGQGTTVTVSS VL: not shown	14.8	34300	29800	9.6	1	7.8	1	44.7	100000	61	35.1	170	0.0902	530000	6	–	–	–
REGN6188 (bispecific antibody, human IgG4 S228P, kappa, common light chain 1-39; also called R6188; PD-L1x4-1BB REGN6188) heavy 1: EVQLVESGGGLVQPGRSLRLSCAASGFTFDDYALHWVRQAPGKGLEWVSGISWTGGTIDYADSVKGRFTISRDNAKNSLYLQMSSLRTEDTAIYYCTRDIRGNWKYGGWFDPWGQGTLVTVSSASTKGPSVFPLAPCSRSTSESTAALGCLVKDYFPEPVTVSWNSGALTSGVHTFPAVLQSSGLYSLSSVVTVPSSSLGTKTYTCNVDHKPSNTKVDKRVESKYGPPCPPCPAPPVAGPSVFLFPPKPKDTLMISRTPEVTCVVVDVSQEDPEVQFNWYVDGVEVHNAKTKPREEQFNSTYRVVSVLTVLHQDWLNGKEYKCKVSNKGLPSSIEKTISKAKGQPREPQVYTLPPSQEEMTKNQVSLTCLVKGFYPSDIAVEWESNGQPENNYKTTPPVLDSDGSFFLYSRLTVDKSRWQEGNVFSCSVMHEALHNHYTQKSLSLSLGK heavy 2: EVQLVESGGGLVQPGGSLRLSCVASGFTFSSYEMNWVRQAPGKGLEWVSYISNSGTTIYYAGSVKGRFTISRDNAKKSLYLHMNSLRAEDTAVYYCAREGTIFGTVHYYFALDVWGQGTTVTVSSASTKGPSVFPLAPCSRSTSESTAALGCLVKDYFPEPVTVSWNSGALTSGVHTFPAVLQSSGLYSLSSVVTVPSSSLGTKTYTCNVDHKPSNTKVDKRVESKYGPPCPPCPAPPVAGPSVFLFPPKPKDTLMISRTPEVTCVVVDVSQEDPEVQFNWYVDGVEVHNAKTKPREEQFNSTYRVVSVLTVLHQDWLNGKEYKCKVSNKGLPSSIEKTISKAKGQPREPQVYTLPPSQEEMTKNQVSLTCLVKGFYPSDIAVEWESNGQPENNYKTTPPVLDSDGSFFLYSRLTVDKSRWQEGNVFSCSVMHEALHNRFTQKSLSLSPGK light: not shown	–	35900	562000	7.2	5.1	45.8	5.1	22.9	52000	33	25.4	128	0.0948	742000	6	0.558	0.926	–
mAb25898 (antibody, V domains shown, bivalent parental anti-4-1BB antibody of REGN6189; also called 25898P2; parental bivalent 4-1BB antibody) VH: QVQLVESGGDVVQPGRSLRLSCTASGFTFSSFGMHWVRQAPGKGLEWVTFLSYDGSYKYYADSVKGRFTISRDNSKNTLYLQMNSLRAEDTAIFYCARDWLDYWGQGTLVTVSS VL: not shown	–	19000	19000	8.4	3.3	5.1	3.3	53.8	120000	70	63.8	94.5	0.0282	298000	24	–	–	0.0406

Now those with a lower Kd [5], led by results:

NFkB-luciferase EC50, Jurkat/NFkB-Luc/h41BB + HEK293/hCD20/hPSMA [1] [nM]	NFkB-luciferase MAX (RLU), Jurkat/NFkB-Luc/h41BB + HEK293/hCD20/hPSMA [1] [RLU]	NFkB-luciferase MAX (RLU), Jurkat/NFkB-Luc/h41BB + HEK293/hCD20/hPSMA/hPD-L1 [1] [RLU]	IL2 release MAX, human CD3+ T cells + HEK293/hCD20/hPSMA + CD20xCD3 [2] [pg/mL]	IL2 release MAX, human CD3+ T cells + HEK293/hCD20/hPSMA, no CD20xCD3 [2] [pg/mL]	IL2 release MAX, human CD3+ T cells + HEK293/hCD20/hPSMA/hPD-L1 + CD20xCD3 [2] [pg/mL]	IL2 release MAX, human CD3+ T cells + HEK293/hCD20/hPSMA/hPD-L1, no CD20xCD3 [2] [pg/mL]	Fold change (max MFI over secondary antibody alone) [3] [fold]	Max [gMFI] [3] [gMFI]	% Blocking at 100 nM mAb [4] [%]	270 nM h4-1BB-mmH Bind (RU) [5] [RU]	Kd [5] [nM]	koff [5] [s⁻¹]	kon [5] [M⁻¹ s⁻¹]	t½ [5] [s]	NFkB-luciferase EC50, Jurkat/NFkB-Luc/h41BB + HEK293/hCD20/hPSMA/hPD-L1 [1] [nM]	IL2 release EC50, human CD3+ T cells + HEK293/hCD20/hPSMA/hPD-L1 + CD20xCD3 [2] [nM]	EC50 [3] [nM]	Binder
–	175000	1.18e+06	8.7	10.1	83.1	10.1	23.8	54000	64	25.4	61.6	0.0315	511000	24	7.03	1.09	–	REGN6189 (bispecific antibody, human IgG4 S228P, kappa, common light chain 1-39; also called R6189; PD-L1x4-1BB REGN6189) heavy 1: EVQLVESGGGLVQPGRSLRLSCAASGFTFDDYALHWVRQAPGKGLEWVSGISWTGGTIDYADSVKGRFTISRDNAKNSLYLQMSSLRTEDTAIYYCTRDIRGNWKYGGWFDPWGQGTLVTVSSASTKGPSVFPLAPCSRSTSESTAALGCLVKDYFPEPVTVSWNSGALTSGVHTFPAVLQSSGLYSLSSVVTVPSSSLGTKTYTCNVDHKPSNTKVDKRVESKYGPPCPPCPAPPVAGPSVFLFPPKPKDTLMISRTPEVTCVVVDVSQEDPEVQFNWYVDGVEVHNAKTKPREEQFNSTYRVVSVLTVLHQDWLNGKEYKCKVSNKGLPSSIEKTISKAKGQPREPQVYTLPPSQEEMTKNQVSLTCLVKGFYPSDIAVEWESNGQPENNYKTTPPVLDSDGSFFLYSRLTVDKSRWQEGNVFSCSVMHEALHNHYTQKSLSLSLGK heavy 2: QVQLVESGGDVVQPGRSLRLSCTASGFTFSSFGMHWVRQAPGKGLEWVTFLSYDGSYKYYADSVKGRFTISRDNSKNTLYLQMNSLRAEDTAIFYCARDWLDYWGQGTLVTVSSASTKGPSVFPLAPCSRSTSESTAALGCLVKDYFPEPVTVSWNSGALTSGVHTFPAVLQSSGLYSLSSVVTVPSSSLGTKTYTCNVDHKPSNTKVDKRVESKYGPPCPPCPAPPVAGPSVFLFPPKPKDTLMISRTPEVTCVVVDVSQEDPEVQFNWYVDGVEVHNAKTKPREEQFNSTYRVVSVLTVLHQDWLNGKEYKCKVSNKGLPSSIEKTISKAKGQPREPQVYTLPPSQEEMTKNQVSLTCLVKGFYPSDIAVEWESNGQPENNYKTTPPVLDSDGSFFLYSRLTVDKSRWQEGNVFSCSVMHEALHNRFTQKSLSLSPGK light: not shown
–	18500	18100	9.3	1.6	4.6	1.6	60.5	140000	87	67.5	34.2	0.0196	572000	36	–	–	0.00508	mAb25907 (antibody, V domains shown, bivalent parental anti-4-1BB antibody of REGN6190; also called 25907P2) VH: EVQLVESGGGLVQPGGSLRLSCEASGFTFSSYEMNWVRQAPGKGLEWISHISSSGSSIYYADSVQGRFTISRDKAKNSLYLQMNSLRAEDTAVYYCTREGFEYGSSSGLKYYYYGLDVWGQGTTVTVSS VL: not shown
